Data reported in article PMC4264349.

Target: Biotinylated calmodulin (UniProt P62157)
Assay: film bulk acoustic resonator (FBAR); biotinylated calmodulin immobilised on Neutravidin adsorbed on the gold sensor surface (190 ng/cm^2 shown; qualitatively the same at all surface concentrations); peptide injected in flow, 10 µL/min; 10 mM HEPES-NaOH, pH 7.2, 100 mM NaCl, 1 mM CaCl2; resonant frequency and motional resistance monitored; peptide concentration not given

- resonant frequency shift at saturation: -1.4 MHz
Substance: Ca2+/calmodulin kinase II inhibitor (CaMKII 281-309) (from UniProt P11275 281-309) (peptide)
